What was measured:
[1] = test system: PMT-complemented mutant yeast; experiment: Growth inhibition of complemented yeast (statement on PMT-complemented strains together); assay type: cell-based, Saccharomyces cerevisiae; conditions: various concentrations
Protocol: (§1) To determine the effect of PMT inhibitors on the growth of PMT- and LacZ-complemented pem1Δpem2Δ S. cerevisiae, the yeast cells were first starved of choline as described above, and the cells were diluted to an OD600 of ~0.6. The PMT-complemented yeast cells were cultured in SG medium (3.4g/L yeast nitrogen base without amino acids, 2% galactose, 30 mg/L histidine, 100 mg/L leucine, 100 mg/L adenine, and 50 mg/L tryptophan) supplemented with 1 mM ethanolamine hydrochloride, while the LacZ-complemented yeast cells were cultured in SG medium supplemented with 1 mM choline chloride. Compounds that depicted cross-inhibitory activity against PMT proteins in vitro were added at various concentrations to the cultures. As a negative control, DMSO (at a final concentration not exceeding 2% [vol/vol]) was added to yeast cultures designated control cultures. The cultures were incubated at 30°C with shaking at 275 rpm for 4 days. On a daily basis during the course of culture, 200-μL portions of culture aliquots were taken, and their OD600s were measured using a microplate reader. In preliminary work, we had observed that the growth of PMT- and LacZ-complemented pem1Δpem2Δ S. cerevisiae plateaued at 3 to 4 days of culture. Therefore, to determine the inhibitory effect of nematode PMT inhibitors on the growth of PMT- and LacZ-complemented pem1Δpem2Δ S. cerevisiae, measurements taken on day 3 were used. The results were presented as percentage of growth rate using the following formula: PGR = growth rate (plus inhibitor)/growth rate (minus inhibitor) × 100 where the percent growth rate (PGR) is the growth rate of inhibitor-treated PMT- or LacZ- complemented Pem1Δpem2Δ S. cerevisiae, considering the growth rate of untreated PMT- or LacZ- complemented Pem1Δpem2Δ S. cerevisiae is 100%; the growth rate = ΔA600^Day 3/ΔA600^Day 0; ΔA600^Day 0 is the absolute value of A600 of PMT- or LacZ- complemented pem1Δ/pem2Δ S. cerevisiae at day 0, which equals the A600 of the culture minus the A600 of the growth medium only; ΔA600^Day 3 is the absolute value of the A600 of PMT- or LacZ complemented pem1Δ/pem2Δ S. cerevisiae at day 3, which equals the A600 of the culture at day 3 minus the A600 of growth medium only; the growth rate (plus inhibitor) is the growth rate of PMT- or -LacZ complemented pem1Δpem2Δ S. cerevisiae in the presence of test compound; and the growth rate (minus inhibitor) is the growth rate of the PMT- or LacZ complemented pem1Δ/pem2Δ S. cerevisiae in the absence of test compound, but with a volume of DMSO equal to that of compound added in the treated culture. The dose-response curves were generated with GraphPad Prism software and IC50 concentrations of the compounds in PMT- and LacZ-complemented yeast cells derived.

[2] = test system: LacZ-complemented pem1Δ/pem2Δ S. cerevisiae; experiment: Growth inhibition of complemented yeast; assay type: cell-based, Saccharomyces cerevisiae; conditions: medium with choline
Protocol: as §1

TcPMT = TcPMT (Toxocara canis, UniProt A0A0B2VTW9); experiment: PMT enzyme kinetics, fluorescence methyltransferase assay; assay type: biochemical; conditions: on phosphoethanolamine
Protocol: (§2) We customized a commercial methyltransferase HT activity assay kit (ENZO) for use of recombinant PMT proteins as enzymes, S-adenosyl-L-methionine (SAM) as the methyl donor, and PE as the substrate, as reported previously ([27]). […] Briefly, the reaction mixture contained 2.5 μL of the kit SAM-free methyltransferase reaction buffer, 3 μL of 10 mM PE solution (pH 7.5), 15 μL of 1 mM SAM solution (pH 7.8), and 1× transferase assay buffer to a final volume of 25 μL. Various concentrations (25-μL total volume) of recombinant PMT protein were added to reactions.
(§3) To determine the enzyme kinetic parameters on SAM, fixed concentrations of PMT recombinant proteins (between 15 and 100 ng/μL, depending on the derived optimal concentration) and PE (200 μM) were used in the reactions, with various concentrations of SAM (0 to 160 μM). On the other hand, to determine the enzyme kinetic parameters on PE, fixed concentrations of PMT recombinant proteins (between 15 and 100 ng/μL, depending on the derived optimal concentration) and SAM (100 μM) were used, with various concentrations of PE (0 to 250 μM).
(§4) For normalization, instead of purified protein, 25 μL of 100 μM S-(5′-adenosyl)-L-homocysteine (SAH) as a positive control, 25 μL of dialysis buffer as a negative control, and 25 μL of 1× transferase assay buffer as a blank control were added to the respective reaction mixtures. The reactions were prepared in triplicate wells using black flat-bottomed 96-well plates. Detection buffer (100 μL) was added into each reaction, yielding a final reaction volume of 150 μL. The plates were covered in aluminum foil and incubated at room temperature with shaking for 30 min, and fluorescence read at 380EX/520EM using a SpectraMax Gemini EM microplate reader (Molecular Devices). Sample readouts were normalized with positive and negative controls.

AsPMT = AsPMT (Ascaris suum, UniProt F1L4B9); experiment: as above; assay type: biochemical; conditions: on phosphoethanolamine
Protocol: as §2, §3, §4

DvPMT1 = DvPMT1 (Dictyocaulus viviparus, UniProt A0A0D8Y714); experiment: as above; assay type: biochemical; conditions: on phosphoethanolamine
Protocol: as §2, §3, §4

AcPMT1 = AcPMT1 (Ancylostoma duodenale, UniProt A0A0C2DEB6); experiment: as above; assay type: biochemical; conditions: on phosphoethanolamine
Protocol: as §2, §3, §4

OdPMT = OdPMT (Oesophagostomum dentatum, UniProt A0A0B1TAL6); experiment: as above; assay type: biochemical; conditions: on phosphoethanolamine
Protocol: as §2, §3, §4

HcPMT1 = HcPMT1 (Haemonchus contortus, UniProt U5HK46); experiment: as above; assay type: biochemical; conditions: on phosphoethanolamine
Protocol: as §2, §3, §4

[3] = substrate: C[S+](CC[C@H](N)C(=O)[O-])C[C@H]1O[C@@H](n2cnc3c(N)ncnc32)[C@H](O)[C@@H]1O; experiment: as above; assay type: biochemical, Dictyocaulus viviparus; conditions: other: on S-adenosyl-L-methionine
Protocol: as §2, §3, §4

[4] = substrate: C[S+](CC[C@H](N)C(=O)[O-])C[C@H]1O[C@@H](n2cnc3c(N)ncnc32)[C@H](O)[C@@H]1O; experiment: as above; assay type: biochemical, Toxocara canis; conditions: other: on S-adenosyl-L-methionine
Protocol: as §2, §3, §4

[5] = substrate: C[S+](CC[C@H](N)C(=O)[O-])C[C@H]1O[C@@H](n2cnc3c(N)ncnc32)[C@H](O)[C@@H]1O; experiment: as above; assay type: biochemical, Oesophagostomum dentatum; conditions: other: on S-adenosyl-L-methionine
Protocol: as §2, §3, §4

[6] = substrate: C[S+](CC[C@H](N)C(=O)[O-])C[C@H]1O[C@@H](n2cnc3c(N)ncnc32)[C@H](O)[C@@H]1O; experiment: as above; assay type: biochemical, Ancylostoma duodenale; conditions: other: on S-adenosyl-L-methionine
Protocol: as §2
(§5) To determine the enzyme kinetic parameters on SAM, fixed concentrations of PMT recombinant proteins (between 15 and 100 ng/μL, depending on the derived optimal concentration) and PE (200 μM) were used in the reactions, with various concentrations of SAM (0 to 160 μM). […]
as §4, with “The reactions were prepared in triplicate wells using black flat-bottomed 96-well plates. Detection buffer (100 μL) was added into each reaction, yielding a final reaction volume of 150 μL.” left out

[7] = substrate: C[S+](CC[C@H](N)C(=O)[O-])C[C@H]1O[C@@H](n2cnc3c(N)ncnc32)[C@H](O)[C@@H]1O; experiment: as above; assay type: biochemical, Haemonchus contortus; conditions: other: on S-adenosyl-L-methionine
Protocol: as §2, §5
as §4, with “The reactions were prepared in triplicate wells using black flat-bottomed 96-well plates. Detection buffer (100 μL) was added into each reaction, yielding a final reaction volume of 150 μL.” left out

AsPMT, sequence (F1L4B9 entry or part of it): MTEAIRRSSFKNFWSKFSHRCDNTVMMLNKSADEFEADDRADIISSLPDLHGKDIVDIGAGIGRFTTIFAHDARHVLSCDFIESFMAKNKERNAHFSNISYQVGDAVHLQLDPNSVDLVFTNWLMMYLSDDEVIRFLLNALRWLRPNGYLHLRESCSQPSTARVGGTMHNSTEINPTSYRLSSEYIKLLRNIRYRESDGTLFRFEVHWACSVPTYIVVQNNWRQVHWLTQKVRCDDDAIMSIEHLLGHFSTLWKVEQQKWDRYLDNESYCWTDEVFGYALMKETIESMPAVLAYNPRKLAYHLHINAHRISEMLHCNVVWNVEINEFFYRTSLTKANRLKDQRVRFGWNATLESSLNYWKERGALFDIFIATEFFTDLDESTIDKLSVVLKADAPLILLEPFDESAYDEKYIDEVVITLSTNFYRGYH

Molecule: CC[C@H]1NC(=O)[C@@H](NC(=O)c2ncccc2O)[C@@H](C)OC(=O)[C@H](c2ccccc2)NC(=O)[C@@H]2CC(=O)CCN2C(=O)[C@H](Cc2ccccc2)N(C)C(=O)[C@@H]2CCCN2C1=O [NSC177858]
- effect on the growth of PMT-complemented mutant yeast [1]: concentration-dependent inhibitory effect
- effect on LacZ-expressing mutant yeast [2]: no or negligible inhibitory effect

Molecule: NCCOP(=O)(O)O [phosphoethanolamine]
- Km (TcPMT): 85 ± 77.8 µM
- kcat (TcPMT): 10.412 ± 3.6983 s⁻¹
- Km (AsPMT): 99.9 ± 36.6 µM
- kcat (AsPMT): 3.2383 ± 0.49 s⁻¹
- Km (DvPMT1): 308 ± 41.7 µM
- kcat (DvPMT1): 16.113 ± 1.61 s⁻¹
- kcat (AcPMT1): 7,071.00 ± 1,141.00 min^−1
- Km (OdPMT): 81 ± 12.8 µM
- kcat (OdPMT): 5.5833 ± 0.3603 s⁻¹
- Km (HcPMT1): 73.4 ± 54.9 µM
- kcat (HcPMT1): 1,066.30 ± 72.70 min^−1

B1: DvPMT1 (Dictyocaulus viviparus) (protein)
chain: MSQGMRHADAVIYGEYDNGRRMKENELKGEHIKNYRTTYDENSFNNTMAVEVRRDLFKTFWDRYSDKPDTNSMMLNHTANDLDASDRADILSSLPHLGNKDVVDIGAGIGRFTTVLANTARWVHSTDFIESFIAKNQERNAHLGNISYQIGDAVNLQMNERSVDLVFTNWLMMYLSDHEVIEFLFNAMRWLRPDGYLHLRESCSEPSTACSKTATMHSSAEANPTHYRFSSLYIKLLRTIRYRDNSGKLWKFDVQWSCSVPTYIQRSNNWRQVHWLTRKVPANNGDTDTSISLLLNLFSQIWPAEQVEWDLKLNIESYVWTDRVFSNAINDEVVPRNGTALVFTPRKRSPYLHVNSHLLAEKFTCNVWTVETNEYYYRTSLTKANHEKNHRVRFGWNESLTSSIDYWSQRDASFDCLISTELLSTNSDDEIKRITRMIGCGFKHVNILDVTNDSRTAEVMFYSEHSINAEPLGCTFLLISATL
- Km [3]: 35.02 ± 5.05 µM
- Vmax [3]: 0.445 µmol/min/mg
- kcat [3]: 3.96 ± 0.214 s⁻¹
- kcat/Km [3]: 113000 M⁻¹ s⁻¹

B2: TcPMT (Toxocara canis) (protein)
chain: MPRLNQKAKTFRDFLDTTQYTDEGIRAYEWIFGENFISPGGYNENLLVLKRLGELKPDSRMLDIGVGIGGGARQAAKEFGLLVLGIDISANMLSIAMDRLQVEKDTRIRYQICNAVDYQFPSNSFDYIVSRDGLHHNEHIDIVMKNIFKWLKPGGKALITIYGKGHGAPKTKFQAYVENRKYHLKTLEQMVQVTKDAGFENVQGTNLTKRLRDILIEERTRALARKGRFLEDFSEETFNSLLEGWNDKIDFIDDDNQTWLQIIATKPL
- Km [4]: 20.31 ± 2.23 µM
- Vmax [4]: 1.08 ± 0.0324 µmol/min/mg
- kcat [4]: 10.9 ± 0.327 s⁻¹
- kcat/Km [4]: 539000 M⁻¹ s⁻¹

B3: OdPMT (Oesophagostomum dentatum) (protein)
chain: MIFQKRFTTVLAETARWVHSTDFIESFIAKNQERNAHLGNISYQIGDAVHLQMDEKSVDLVFTNWLMMYLSDREVIEFLFNAMRWLRADGYMHLRESCSEPSTGRSKSATMHTSAEANPTHYRFSSLYIKLLRALRYQDSDGKVWRFDVQWSCSVPTYIRFFSETWRAEQIAWDAKLDKEQYVWTDKIFSNVLDSAVVPKNSTAYVFTPRRRSPYLHVNSHLLADKFTCNVWNVELNENFYRTSLTKANNQKDQRVRFGWNETLASSIDYWTQRDGSFDCLIATELLSTSDDESIKSIASIMKPEAKCVLLEPVDEVNEAVIKARMSSCGFKNVSVMDVTEDCKAAEAAYASDHNLQIDPSNCSYVLINASL
- Km [5]: 48.95 ± 7.07 µM
- Vmax [5]: 3.13 ± 0.204 µmol/min/mg
- kcat [5]: 45.4 ± 2.96 s⁻¹
- kcat/Km [5]: 927000 M⁻¹ s⁻¹

B4: AcPMT1 (Ancylostoma duodenale) (protein)
chain: MEERSVDLVFTNWLMMYLSDREVIEFLFNAMRWLRADGYMHLRESCSEPSTGRAKSSTMHSNTDSNPTHYRFSSLYIKLLRAIRYRDNDGKVWRFDVQWSCSVPTYIKRSNNWRQVHWLTKKVSADGDDETTINDLLKLFSQTWYTEQVAWDAKLDNEKYVWTDKIFSNAIDNEVVPKNSTAYVFTPRKMSPYLHINSHLLAEKFTCNVWNVEMNENFYRTSLTKANNQKDQRVRFGWNESLASSIDYWTQRDASFDCLIGTELLSTNGDESIKRIASIMKPEAKIVLLEPVDDVAEQAIKERMASCGFKNISVVDVTEECKAAEAAYANDHNLAFLFIEL
- Km [6]: 27.33 ± 3.58 µM
- kcat/Km [6]: 1.98e+06 M⁻¹ s⁻¹

B5: HcPMT1 (Haemonchus contortus) (protein)
chain: MTAEVRRDSFKTFWDKYSDKPDTNSMMLNQTAQDLEASDRADILSSLPHLTNKDVVDIGAGIGRFTTVLAETARWVLSTDFIESFIEKNQERNAHMGNISYQIGDAVHLQMDEKSVDLVFTNWLMMYLSDREVIEFLLNAMRWLRADGYIHLRESCSEPSTGRLKTATMHSAVDANPTHYRFSSLYIKLLRAIRYRDSDGKMWKFDVQWSCSVPTYIRRCNNWRQVHWLTKKVPAVGDEETSVDDLLNLFSQIWPAEQKTWDEKLDNEKYSWTDKIFSNAIDDEVVPKNSTAYVFTPRQRSPFLHVNSHLLAEKFTCNVWNVETKEYLYRTSLTKANNQKDQRVRFGWNESLSSSIDYWNQRDASFDCMVATELLATCDDESINSIASIMKPEAKVVLLEPVSGIDETSVRQRMTTCGFKNITIVDVTQESLNAEVSFIKDHNLDVELSGCNYLLIKASL
- Km [7]: 18.34 ± 3.80 µM
- kcat/Km [7]: 3.91e+06 M⁻¹ s⁻¹
